We go through 33 molecules from patent US20250282866A1 (VIGIL NEUROSCIENCE, published 2025).

B1: V32 (antibody, V domains shown)
VH: EVQLVQSGAEVKKPGESLKISCKGSGYSFTSYWIAWVRQMPGKGLEWMGIIYPGDSDTRYSNSFQGQVTISADKSISTAYLQWSSLKASDTAMYFCARQRTFYYDSSDYFDYWGQGTLVTVSS
VL: DIQMTQSPSSVSASVGDRVTITCRASQGISSWLAWYQQKPGKAPKLLIYAASSLQNGVPSRFSGSGSGTDFTLTISSLQPEDFATYFCQQADSFPRTFGQGTKLEIK
B2: V44 (antibody, V domains shown)
VH: B1 VH with G54S, N62P
VL: B1 VL
B3: V46 (antibody, V domains shown)
VH: B1 VH with N62P
VL: B1 VL with S53T
B4: V69 (antibody, V domains shown)
VH: B1 VH with N62P
VL: B1 VL with W32Y
B5: V78 (antibody, V domains shown)
VH: B1 VH with S28R, N62P
VL: B1 VL
B6: V35 (antibody, V domains shown)
VH: B1 VH with N62P
VL: B1 VL with D92Y
B7: V34 (antibody, V domains shown)
VH: B1 VH with N62P
VL: B1 VL with N56D
B8: V43 (antibody, V domains shown)
VH: B1 VH with D57G, N62P
VL: B1 VL
B9: V70 (antibody, V domains shown)
VH: B1 VH with N62P
VL: B1 VL with S52G
B10: V80 (antibody, V domains shown)
VH: B1 VH with N62P, T101N
VL: B1 VL
B11: V57 (antibody, V domains shown)
VH: B1 VH with N62P
VL: B1 VL with R24A
B12: V93 (antibody, V domains shown)
VH: B1 VH with N62P
VL: B1 VL with S31G
B13: V94 (antibody, V domains shown)
VH: B1 VH with N62P
VL: B1 VL with S52A
B14: V90 (antibody, V domains shown)
VH: B1 VH with Y32E, N62P
VL: B1 VL with S31R
B15: V42 (antibody, V domains shown)
VH: B1 VH with Y32A, N62P
VL: B1 VL
B16: V56 (antibody, V domains shown)
VH: B1 VH with S61Q, N62P
VL: B1 VL
B17: V67 (antibody, V domains shown)
VH: B1 VH with I50M, N62P
VL: B1 VL
B18: V54 (antibody, V domains shown)
VH: B1 VH with Y32Q, N62P
VL: B1 VL
B19: V55 (antibody, V domains shown)
VH: B1 VH with R59I, N62P, F64H
VL: B1 VL
B20: V45 (antibody, V domains shown)
VH: B1 VH with N62P
VL: B1 VL with W32F
B21: V91 (antibody, V domains shown)
VH: B1 VH with G54D, N62P
VL: B1 VL
B22: V66 (antibody, V domains shown)
VH: B1 VH with Y27T, N62P
VL: B1 VL
B23: V71 (antibody, V domains shown)
VH: B1 VH with N62P
VL: B1 VL with F94E
B24: V33 (antibody, V domains shown)
VH: B1 VH with N62P, Y104G
VL: B1 VL
B25: V59 (antibody, V domains shown)
VH: B1 VH with N62P
VL: B1 VL with Q89M
B26: V81 (antibody, V domains shown)
VH: B1 VH with N62P
VL: B1 VL with W32L
B27: V83 (antibody, V domains shown)
VH: B1 VH with N62P
VL: B1 VL with D92V
B28: V47 (antibody, V domains shown)
VH: B1 VH with N62P
VL: B1 VL with R96M
B29: V92 (antibody, V domains shown)
VH: B1 VH with N62P, Y103H
VL: B1 VL
B30: V82 (antibody, V domains shown)
VH: B1 VH with N62P
VL: B1 VL with A51G
B31: V68 (antibody, V domains shown)
VH: B1 VH with N62P, Y103R
VL: B1 VL
B32: V58 (antibody, V domains shown)
VH: B1 VH with N62P
VL: B1 VL with A50K
B33: V79 (antibody, V domains shown)
VH: B1 VH with R59N, N62P
VL: B1 VL

Positions count from the first letter of the chain named.

In one assay the target is T1, human TREM2 (human, UniProt Q9NZC2 19-174, limits assumed).
T1 construct: also called triggering receptor expressed on myeloid cells 2
T1 sequence: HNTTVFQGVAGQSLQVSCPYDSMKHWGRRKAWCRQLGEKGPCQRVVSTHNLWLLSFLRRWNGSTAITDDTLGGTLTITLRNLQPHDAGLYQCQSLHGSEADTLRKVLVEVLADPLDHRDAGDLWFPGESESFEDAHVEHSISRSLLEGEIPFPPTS
Description: 2nd screen 100 nM.
On to B1, for which the “Binding Signal (fold over 6E7 Parental antibody)” value was found to be 0.89 fold.
Same read-out and setting: the value for B2 was 0.52 fold; that for B3 was 0.96 fold; that for B4 was 0.4 fold.
Still for that read-out and setting: for B5 the value was 1.11 fold; for B6, 0.29 fold.
The same measure, in the same setting: for B7 the value was 1.02 fold.
Consider B8, for which the “Binding Signal (fold over 6E7 Parental antibody)” value amounted to 0.33 fold.
On the same count and under the same terms, the value for B9 was 0.84 fold; that for B10 was 0.5 fold; that for B11 was 0.85 fold.
Still for that read-out and setting: the value for B12 was 1.05 fold; that for B13 was 0.87 fold; that for B14 was 0.36 fold.
The same measure, in the same setting: the value for B15 was 0.41 fold; that for B16 was 0.59 fold; that for B17 was 0.84 fold.
On to B18, for which the “Binding Signal (fold over 6E7 Parental antibody)” value amounted to 0.54 fold.
Same read-out and setting: for B19 the value was 0.66 fold.
The same measure, in the same setting: the value for B20 was 0.53 fold; that for B21 was 0.61 fold; that for B22 was 0.74 fold.
Same read-out and setting: for B23 the value was 0.48 fold; for B24, 0.34 fold.
For the molecule B25, the “Binding Signal (fold over 6E7 Parental antibody)” value came to 0.6 fold.
Still for that read-out and setting: the value for B26 was 0.23 fold; that for B27 was 0.29 fold.
For the molecule B28, the “Binding Signal (fold over 6E7 Parental antibody)” value is 0.47 fold.
Take B29: the “Binding Signal (fold over 6E7 Parental antibody)” value was determined as 0.65 fold.
Still for that read-out and setting: the value for B30 was 0.79 fold; that for B31 was 0.43 fold.
For B32, the “Binding Signal (fold over 6E7 Parental antibody)” value is 0.68 fold.
As to B33, the “Binding Signal (fold over 6E7 Parental antibody)” value was found to be 0.52 fold.

Another assay deals with T1, human TREM2. In words: 1st screen (110 nM or 10 nM).
In the case of B1, the “Binding Signal (fold over 6E7 Parental antibody)” value came to 0.82 fold.
For the molecule B2, the “Binding Signal (fold over 6E7 Parental antibody)” value stood at 0.65 fold.
In the case of B3, the “Binding Signal (fold over 6E7 Parental antibody)” value came out at 0.83 fold.
The same measure, in the same setting: for B4 the value was 0.41 fold; for B5, 0.86 fold.
Same read-out and setting: for B6 the value was 0.21 fold; for B7, 0.34 fold.
Still for that read-out and setting: for B8 the value was 0.2 fold; for B9, 0.79 fold.
B10: the “Binding Signal (fold over 6E7 Parental antibody)” value came out at 0.59 fold.
Still for that read-out and setting: the value for B11 was 0.84 fold.
The same measure, in the same setting: the value for B12 was 0.35 fold; that for B13 was 0.31 fold; that for B14 was 0.33 fold.
On the same count and under the same terms, the value for B15 was 0.45 fold.
In the case of B16, the “Binding Signal (fold over 6E7 Parental antibody)” value was 0.23 fold.
On the same count and under the same terms, the value for B17 was 0.8 fold; that for B18 was 0.55 fold.
The same measure, in the same setting: for B19 the value was 0.24 fold.
For B20, the “Binding Signal (fold over 6E7 Parental antibody)” value amounted to 0.43 fold.
The same measure, in the same setting: for B21 the value was 0.25 fold.
Regarding B22, the “Binding Signal (fold over 6E7 Parental antibody)” value stood at 0.25 fold.
In the case of B23, the “Binding Signal (fold over 6E7 Parental antibody)” value came out at 0.37 fold.
Still for that read-out and setting: the value for B24 was 0.23 fold; that for B25 was 0.19 fold.
Turning to B26, the “Binding Signal (fold over 6E7 Parental antibody)” value is 0.17 fold.
For the molecule B27, the “Binding Signal (fold over 6E7 Parental antibody)” value came out at 0.2 fold.
On the same count and under the same terms, for B28 the value was 0.42 fold; for B29, 0.22 fold; for B30, 0.3 fold.
The same measure, in the same setting: for B31 the value was 0.44 fold.
The same measure, in the same setting: for B32 the value was 0.28 fold.
On to B33, for which the “Binding Signal (fold over 6E7 Parental antibody)” value was determined as 0.7 fold.
